B1: Human Claudin-7 (Cldn7), wild type, His-tagged [human] / itself (parent)
chain: MANSGLQLLGFSMALLGWVGLVACTAIPQWQMSSYAGDNIITAQAMYKGLWMDCVTQSTGMMSCKMYDSVLALSAALQATRALMVVSLVLGFLAMFVATMGMKCTRCGGDDKVKKARIAMGGGIIFIVAGLAALVACSWYGHQIVTDFYNPLIPTNIKYEFGPAIFIGWAGSALVILGGALLSCSCPGNESKAGYRVPRSYPKSNSSKEYV

Variants of: B1
Test: solubilization/centrifugation assay with SDS-PAGE densitometry
Settings: p-buffer, n = 9, read off a plot

## MANSGLQLLGFSMALLGWVGLVACTAIPQWQMSSYAGDNIITAQAMYKGLWMDCVTQSTGMMSCKMYDSVLALSAALQATRALMVVSLVLGFLAMFVATMGMKCTRCGGDDKVKKARIAMGGGIIFIVAGLAALVACSWYGHQIVTDFANPLIPTNIKYEFGPAIFIGWAGSALVILGGALLSCSCPGNESKAGYRVPRSYPKSNSSKEYV [chain 1 Y149A]
0 mM NaCl
  screen value: 0.67 a.u.
300 mM NaCl
  screen value: 0.96 a.u.

## MANSGLQLLGFSMALLGWVGLVACTAIPQWQMSSYAGDNIITAQAMYKGLWMDCVTQSTGMMSCKMYDSVLALSAALQATRALMVVSLVLGFLAMFVATMGMKCTRCGGDDKVKKARIAMGGGIIFIVAGLAALVACSWYGHQIVTDFYNPLIPTNIKYEAGPAIFIGWAGSALVILGGALLSCSCPGNESKAGYRVPRSYPKSNSSKEYV [chain 1 F161A]
0 mM NaCl
  screen value: 0.39 a.u.
300 mM NaCl
  screen value: 0.85 a.u.

## MANSGLQLLGFSMALLGWVGLVACTAIPQWQMSSYAGDNIITAQAMYKGLWMDCVTQSTGMMSCKMYDSVLALSAALQATRALMVVSLVLGFLAMFVATMGMKCTRCGGDDKVKKARIAMGGGIIFIVAGLAALVACSWYGHQIVTDFYNPLIPTNIKYAFGPAIFIGWAGSALVILGGALLSCSCPGNESKAGYRVPRSYPKSNSSKEYV [chain 1 E160A]
0 mM NaCl
  screen value: 0.38 a.u.
300 mM NaCl
  screen value: 0.87 a.u.

## MANSGLQLLGFSMALLGWVGLVACTAIPQWQMSSYAGDNIITAQAMYKGLWMDCVTQSTGMMSCKMYDSALALSAALQATRALMVVSLVLGFLAMFVATMGMKCTRCGGDDKVKKARIAMGGGIIFIVAGLAALVACSWYGHQIVTDFYNPLIPTNIKYEFGPAIFIGWAGSALVILGGALLSCSCPGNESKAGYRVPRSYPKSNSSKEYV [chain 1 V70A]
0 mM NaCl
  screen value: 0.39 a.u.
300 mM NaCl
  screen value: 0.8 a.u.

## MANSGLQLLGFSMALLGWVGLVACTAIPQWQMSSYAGDNIITAQAMYKGLWMDCVTQSTGMMSCKMYDSALALSAALQATAALMVVSLVLGFLAMFVATMGMKCTRCGGDDKVKKARIAMGGGIIFIVAGLAALVACSWYGHQIVTDAANPLIPTNIKYAAGPAIFIGWAGSALVILGGALLSCSCPGNESKAGYRVPRSYPKSNSSKEYV [chain 1 V70A R81A F148A Y149A E160A F161A]
0 mM NaCl
  screen value: 0.87 a.u.
300 mM NaCl
  screen value: 0.86 a.u.

## MANSGLQLLGFSMALLGWVGLVACTAIPQWQMSSYAGDNIITAQAMYKGLWMDCVTQSTGMMSCKMYDSVLALSAALQATAALMVVSLVLGFLAMFVATMGMKCTRCGGDDKVKKARIAMGGGIIFIVAGLAALVACSWYGHQIVTDFYNPLIPTNIKYEFGPAIFIGWAGSALVILGGALLSCSCPGNESKAGYRVPRSYPKSNSSKEYV [chain 1 R81A]
0 mM NaCl
  screen value: 0.7 a.u.
300 mM NaCl
  screen value: 0.91 a.u.

## MANSGLQLLGFSMALLGWVGLVACTAIPQWQMSSYAGDNIITAQAMYKGLWMDCVTQSTGMMSCKMYDSVLALSAALQATRALMVVSLVLGFLAMFVATMGMKCTRCGGDDKVKKARIAMGGGIIFIVAGLAALVACSWYGHQIVTDAYNPLIPTNIKYEFGPAIFIGWAGSALVILGGALLSCSCPGNESKAGYRVPRSYPKSNSSKEYV [chain 1 F148A]
0 mM NaCl
  screen value: 0.38 a.u.
300 mM NaCl
  screen value: 0.87 a.u.

## MANSGLQLLGFSMALLGWVGLVACTAIPQWQMSSYAGDNIITAQAMYKGLWMDCVTQSTGMMSCKMYDSVLALSAALQATAALMVVSLVLGFLAMFVATMGMKCTRCGGDDKVKKARIAMGGGIIFIVAGLAALVACSWYGHQIVTDFANPLIPTNIKYEFGPAIFIGWAGSALVILGGALLSCSCPGNESKAGYRVPRSYPKSNSSKEYV [chain 1 R81A Y149A]
0 mM NaCl
  screen value: 0.7 a.u.
300 mM NaCl
  screen value: 0.82 a.u.

Source: paper PMC9271825
